# Data taken from paper PMC10213792 (Acta Pharmaceutica Sinica. B, 2023).
# The star is where a group is joined. FITC = O=C1OC2(c3ccc(O)cc3Oc3cc(O)ccc32)c2ccc(NC(=S)*)cc21
# T1: His-tagged FtsZ (M. tuberculosis H37Rv, UniProt P9WN95 1-379)
# T1 sequence: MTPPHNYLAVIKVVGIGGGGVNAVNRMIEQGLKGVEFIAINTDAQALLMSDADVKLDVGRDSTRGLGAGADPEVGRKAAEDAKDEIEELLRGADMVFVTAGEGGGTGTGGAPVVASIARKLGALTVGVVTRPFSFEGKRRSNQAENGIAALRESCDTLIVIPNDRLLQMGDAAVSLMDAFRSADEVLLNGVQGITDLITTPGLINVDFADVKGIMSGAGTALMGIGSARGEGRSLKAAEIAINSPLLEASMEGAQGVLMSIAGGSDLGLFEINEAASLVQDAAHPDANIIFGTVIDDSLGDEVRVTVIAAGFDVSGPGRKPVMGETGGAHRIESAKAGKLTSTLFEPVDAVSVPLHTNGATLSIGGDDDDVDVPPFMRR
# B1: His-tagged SepFc (N-terminal truncated version of SepF, amino acids 115-203) (domain or fragment)
# chain: EMTRPRFGSWLRNSTRGALAMDPRRMAMMFEDGHPLSKITTLRPKDYSEARTIGERFRDGSPVIMDLVSMDNADAKRLVDFAAGLAFAL
# Tests used:
# SepF = SepF (Mycobacterium tuberculosis, UniProt P9WGJ5); assay: SPR; type: binding
# Sequence of SepF (P9WGJ5 115-203): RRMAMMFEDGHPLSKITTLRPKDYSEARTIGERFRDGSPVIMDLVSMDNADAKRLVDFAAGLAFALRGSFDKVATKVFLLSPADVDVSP
# His-tagged FtsZ = target: T1, His-tagged FtsZ; assay: SPR
# [1] = target: B1; assay: fluorescence polarisation
molecule,measurement,setting,value
"OC(COc1ccc2ccccc2c1)CN1CCCN(CC(O)COc2ccc3ccccc3c2)CC1 (stereo not drawn) [T0349, 1-{4-[2-hydroxy-3-(naphthalen-2-yloxy)propyl]-1,4-diazepan-1-yl}-3-(naphthalen-2-yloxy) propan-2-ol]",Kd,SepF,46.8 µM
B1,Kd,His-tagged FtsZ,5.16 µM
"{FITC}-SIGGDDDDVDVPPFMRR-OH [FITC-FtsZ (FITC-SIGGDDDDVDVPPFMRR-OH, 363-379 amino acids of the full-length FtsZ)]",Kd,[1],0.0186 µM
